The values below come from patent US20050153368A1.

This assay addresses Gα15 (mammalian).

“Anopheles gambiae odorant receptor 1 (from UniProt Q8WTE7)” had a clamp current on perfusion with 4-methyl phenol, voltage clamp of Xenopus oocytes expressing AgOR1/Gα15 of 20 nA.
